Data on three molecules can be found in patent publication US20030224458A1 (published 2003).

Ends that are not written are not given here.

The assay concerns the target T1, HGPRBMY23 polypeptide (novel human G-protein coupled receptor) (human, UniProt Q96P68 1-337).
T1 construct: For phage panning it was expressed on CHO-K1 cells from the pcDNA3.1 Hygro-HGPRBMY23 construct; For immunohistochemistry it was the native protein in paraffin-embedded, formalin-fixed tissue sections; also called GPCR92
In words: phage display panning on CHO-K1 cells transfected with HGPRBMY23, after preadsorption on integrin and parental cells. As to the method:
Typically, this corresponded to one P175 flask with near-confluent growth. A similar number of parental cells were grown for preadsorption. One day prior to panning, two or three 96-well Immulon plates were coated integrin. Plates were coated overnight at 4° C. in NaHCO₃, pH 9.5, with ˜50 ng of αVβ3 integrin (Chemicon; Cat. #CC1020) per well per library.
On the day of panning, growth medium was discarded and cells were washed with 10 ml PBS by allowing the buffer to flow over the cells. The PBS was removed and 10 ml Tris-EDTA detaching buffer (Gibco Cat. #13150-016; no trypsin) was added for 2 min. Plates were tapped and/or pipetted up and down to detach cells. This was done quickly to minimize the exposure of the cells to this reagent. Cells were pelleted by centrifugation at 3K, and then washed with 20 ml PBS. Cells were resuspended cells in PBS with 2% milk blocking agent plus protease inhibitor (EDTA-free; Roche Cat. #1 873 580). For each library, cell suspensions of ˜500 ul were used. Cells were blocked for 30-60 min with gentle rocking at room temperature. The integrin-coated wells were washed 3× in PBST, then blocked with 2% BSA in PBS for 30 min or more. To preadsorb against integrin, input phage was added to the integrin-coated wells, and incubated for 30 min or more.
At this stage, the blocked parental cells were divided into the required number of aliquots (500 ul aliquot/library). The phage supernatants were added from the integrin-preadsorption step. Preadsorption against the parental cells was carried out for 30 min or more with gentle rocking. The blocked transfected cells were divided into the required number of aliquots (500 ul aliquot per library). The transfected cells were pelleted, and the supernatant was discarded. The phage supernatants from the two preadsorption steps were added, and cells were incubated with gentle rocking for 2 h or more. Cells were washed 6-8×with PBST at 5 min intervals. Each wash was performed by gently pipetting the cells up and down, and cells were centrifuged at low speed. […]

T1 sequence (Q96P68 whole entry): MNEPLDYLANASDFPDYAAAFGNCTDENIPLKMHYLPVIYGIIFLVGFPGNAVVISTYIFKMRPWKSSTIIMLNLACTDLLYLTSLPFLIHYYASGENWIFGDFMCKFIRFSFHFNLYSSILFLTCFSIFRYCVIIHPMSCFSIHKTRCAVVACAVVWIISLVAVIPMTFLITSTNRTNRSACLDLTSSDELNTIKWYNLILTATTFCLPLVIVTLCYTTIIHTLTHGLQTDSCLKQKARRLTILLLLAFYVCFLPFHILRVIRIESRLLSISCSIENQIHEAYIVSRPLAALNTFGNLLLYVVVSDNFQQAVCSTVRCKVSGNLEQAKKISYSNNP

B1: Peptide modulator of HGPRBMY23 LFASSDWSSFPVLVF (peptide)
peptide: LFASSDWSSFPVLVF
modifications: also: synthetic versions N-acetylated, C-terminal amide, also phage-displayed
notes: Synthetic versions are described as N-acetylated peptides made on Knorr amide resin (C-terminal amide)
On to B1, for which the binding result is “binds”.

B2: Peptide modulator of HGPRBMY23 FVGTFDWQSYPLLSF (peptide)
peptide: FVGTFDWQSYPLLSF
modifications: not fully specified (N-terminus, C-terminus)
notes: as for B1
With B2, the binding result is reported as “binds”.

B3: Peptide modulator of HGPRBMY23 SRVSGAKVWFLSNWS (peptide)
peptide: SRVSGAKVWFLSNWS
modifications: also: synthetic versions N-acetylated, C-terminal amide, also phage-displayed
notes: as for B1
As to B3, the binding result was “binds”.
